For assay [1], the target named is trimeric cohesin (SMC1, SMC3-FLAG, SCC1(TEV)-Halo-His14) (human) (UniProt Q14683). Briefly: high-speed atomic force microscopy.
The target in another assay is NIPBL (human) (UniProt Q6KC79). The assay is described as follows: high-speed atomic force microscopy.

Regarding “NIPBL (from UniProt Q6KC79 1-2804) (natural protein)”, the stoichiometry N in assay [1] was found to be 1.

In the case of NIPBL, Q6KC79 1-2804, in the assay with NIPBL (human), the stoichiometry N is 2.

These data come from paper PMC8563363.
